The values below come from PMC10275983 (2023).

No end group written: not given here.

Common to all, as to test: SPR
Experiment [1] concerns the target S1-NTD (ACROBiosystems S1D-C52H6) (SARS-CoV-2 (Wuhan-Hu-1 strain)).
The target in experiment [2] is S1 (Novus Biologicals NBP2-90985) (SARS-CoV-2, UniProt P0DTC2 14-685).
For experiment [3], the target named is S1-RBD (ACROBiosystems SPD-C82E9) (SARS-CoV-2 (Wuhan-Hu-1 strain), UniProt P0DTC2 319-541).
Experiment [4] has as its target S2 (ACROBiosystems S2N-C52E8) (SARS-CoV-2 (Wuhan-Hu-1 strain), UniProt P0DTC2 14-1273).

B1: E6 Bicycle (exemplar of epitope group 6) (peptide)
peptide: ACDHYHCPWLALGGSCA
modifications: not fully specified (bridges); also: bicyclic peptide, scaffold not given here
Usually Kd stands for the constant that tells how readily two partners part at equilibrium. B1 displayed a Kd in experiment [1] of 3900 nM.

B2: E1 Bicycle (exemplar of epitope group 1) (peptide)
peptide: ACEYVGPMCYRLYCA
modifications: not fully specified (bridges); also: Bicycle
For B2, the Kd stood at 5100 nM in experiment [2] and 3600 nM in experiment [3].

B3: E11 Bicycle (exemplar of epitope group 11) (peptide)
peptide: ACFPEPWLGLCTPCA
modifications: not fully specified (bridges); also: Bicycle
B3 gave a Kd in experiment [4] of 530 nM. This counts as sub-micromolar.

B4: E4 Bicycle (exemplar of epitope group 4) (peptide)
peptide: ACIPLDWTCMIACA
modifications: not fully specified (bridges); also: bicyclic peptide, scaffold not named
Take B4: the Kd was found to be 2900 nM in experiment [2] and 440 nM in experiment [1].

B5: E5 Bicycle (canonical exemplar of epitope group 5) (peptide)
peptide: ACANPDNPVCRFYCA
modifications: not fully specified (bridges); also: bicyclic peptide, scaffold not named
In experiment [2], B5 had a Kd of 24 nM.

B6: E7 Bicycle (exemplar of epitope group 7) (peptide)
peptide: ACINPYCEHHIYLEHCA
modifications: not fully specified (bridges); also: bicyclic peptide, scaffold not given here
In the case of B6, the Kd in experiment [1] worked out at 4000 nM. In other words, the single-digit micromolar range.

B7: E9 Bicycle (exemplar of epitope group 9) (peptide)
peptide: ACMNPFFYDCETVCA
modifications: not fully specified (bridges); also: bicyclic peptide, scaffold not named
Consider B7, for which the dissociation constant (Kd) in experiment [2] was 3800 nM; in experiment [3] it was 4100 nM.

B8: E12 Bicycle (exemplar of epitope group 12) (peptide)
peptide: ACSSKFCDAWWNFNRCA
modifications: not fully specified (bridges); also: Bicycle
Molecule B8 gave a Kd in experiment [4] of 810 nM.

B9: E2 Bicycle (canonical exemplar of epitope group 2) (peptide)
peptide: ACPYVAGRGTCLLCA
modifications: not fully specified (bridges); also: Bicycle
In the case of B9, the Kd came to 830 nM in experiment [2] and 650 nM in experiment [3].

B10: E3 Bicycle (exemplar of epitope group 3) (peptide)
peptide: ACEDNDWVYCSTCA
modifications: not fully specified (bridges); also: Bicycle
For the molecule B10, the equilibrium dissociation constant (Kd) is 2500 nM in experiment [2] and 2300 nM in experiment [3].
